Blank lines part the entries; values can stand above or below the binder they belong to.
Columns and labels:
Assay in all cases: holdup assay
Parameters in all cases: key: below the threshold = too weak to quantify, mostly under pKd 3.1 to 4
Conditions in all cases: plain residues with an end cap or a label only (N-terminal biotin on a linker: ado-ado)
MAGI2_3, Q86UL8 = target: MAGI2_3, Q86UL8
DLG4_2, P78352 = target: DLG4_2, P78352
LRRC7, Q96NW7 = target: T1, LRRC7, Q96NW7
T1 sequence (Q96NW7 1440-1537, limits assumed, looked up): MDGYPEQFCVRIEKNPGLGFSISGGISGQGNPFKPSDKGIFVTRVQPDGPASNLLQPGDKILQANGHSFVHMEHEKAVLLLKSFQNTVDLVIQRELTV

SNTG2, Q9NY99 = target: T2, SNTG2, Q9NY99
T2 sequence (Q9NY99 68-166, limits assumed, looked up): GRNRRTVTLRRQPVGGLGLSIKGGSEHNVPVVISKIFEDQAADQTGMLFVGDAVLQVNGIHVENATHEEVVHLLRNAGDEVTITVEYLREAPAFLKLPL

MAGI2_5, Q86UL8 = target: MAGI2_5, Q86UL8
Chain of MAGI2_5, Q86UL8 (Q86UL8 915-1017): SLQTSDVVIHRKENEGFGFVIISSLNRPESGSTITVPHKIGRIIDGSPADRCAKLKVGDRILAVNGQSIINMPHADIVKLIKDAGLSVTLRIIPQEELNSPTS

ARHGEF11, O15085 = target: T3, ARHGEF11, O15085
T3 sequence (O15085 42-136, limits assumed, looked up): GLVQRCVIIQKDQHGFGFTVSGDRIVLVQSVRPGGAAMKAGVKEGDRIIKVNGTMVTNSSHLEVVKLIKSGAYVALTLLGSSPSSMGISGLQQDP

NHERF4_2, Q86UT5 = target: NHERF4_2, Q86UT5
Chain of NHERF4_2, Q86UT5 (Q86UT5 220-308): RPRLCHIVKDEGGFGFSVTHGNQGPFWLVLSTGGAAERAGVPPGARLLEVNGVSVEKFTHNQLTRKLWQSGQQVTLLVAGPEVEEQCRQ

RHPN1, Q8TCX5 = target: T4, RHPN1, Q8TCX5
T4 sequence (Q8TCX5 508-602, limits assumed, looked up): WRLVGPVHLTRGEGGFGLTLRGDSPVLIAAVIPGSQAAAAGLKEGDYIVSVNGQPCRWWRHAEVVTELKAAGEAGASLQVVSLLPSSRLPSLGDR

GRIP1_3, Q9Y3R0 = target: T5, GRIP1_3, Q9Y3R0
T5 sequence (Q9Y3R0 247-346, limits assumed, looked up): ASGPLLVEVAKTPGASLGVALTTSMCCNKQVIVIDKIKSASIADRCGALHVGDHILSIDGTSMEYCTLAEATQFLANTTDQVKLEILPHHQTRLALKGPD

CASK, O14936 = target: CASK, O14936
Chain of CASK, O14936 (O14936 487-570): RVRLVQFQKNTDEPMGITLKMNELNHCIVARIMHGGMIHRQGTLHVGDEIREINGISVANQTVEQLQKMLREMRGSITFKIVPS

Inadl_4, Q8NI35 = target: Inadl_4, Q8NI35
Chain of Inadl_4, Q8NI35 (Q8NI35 547-651): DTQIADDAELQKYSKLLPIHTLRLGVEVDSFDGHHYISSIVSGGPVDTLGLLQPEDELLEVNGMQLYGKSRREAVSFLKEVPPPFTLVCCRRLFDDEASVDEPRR

SCRIB_3, Q14160 = target: SCRIB_3, Q14160
Chain of SCRIB_3, Q14160 (Q14160 999-1103): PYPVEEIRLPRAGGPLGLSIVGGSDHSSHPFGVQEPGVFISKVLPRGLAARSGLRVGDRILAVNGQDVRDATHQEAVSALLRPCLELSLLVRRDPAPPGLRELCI

DLG5_1, Q8TDM6 = target: DLG5_1, Q8TDM6
Chain of DLG5_1, Q8TDM6 (Q8TDM6 617-713): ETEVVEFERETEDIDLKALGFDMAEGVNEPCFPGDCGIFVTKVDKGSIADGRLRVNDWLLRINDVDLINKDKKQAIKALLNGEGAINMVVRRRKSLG

SCRIB_1, Q14160 = target: SCRIB_1, Q14160
Chain of SCRIB_1, Q14160 (Q14160 718-814): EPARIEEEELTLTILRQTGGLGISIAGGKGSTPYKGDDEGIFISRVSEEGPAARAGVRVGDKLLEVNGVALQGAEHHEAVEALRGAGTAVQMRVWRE

PTPN13_1, Q12923 = target: T6, PTPN13_1, Q12923
T6 sequence (Q12923 1088-1188, limits assumed, looked up): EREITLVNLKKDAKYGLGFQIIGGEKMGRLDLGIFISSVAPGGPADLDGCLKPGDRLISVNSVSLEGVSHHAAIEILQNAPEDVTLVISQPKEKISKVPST

SNTB1, Q13884 = target: T7, SNTB1, Q13884
T7 sequence (Q13884 107-205, limits assumed, looked up): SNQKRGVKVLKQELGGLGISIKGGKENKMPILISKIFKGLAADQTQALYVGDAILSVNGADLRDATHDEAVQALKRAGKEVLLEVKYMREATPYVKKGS

PDZRN3_1, Q9UPQ7 = target: T8, PDZRN3_1, Q9UPQ7
T8 sequence (Q9UPQ7 244-349, limits assumed, looked up): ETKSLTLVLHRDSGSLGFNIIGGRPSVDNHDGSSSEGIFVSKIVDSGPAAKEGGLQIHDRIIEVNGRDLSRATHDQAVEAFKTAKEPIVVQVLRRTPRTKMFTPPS

DLG2_2, Q15700 = target: DLG2_2, Q15700
Chain of DLG2_2, Q15700 (Q15700 189-283): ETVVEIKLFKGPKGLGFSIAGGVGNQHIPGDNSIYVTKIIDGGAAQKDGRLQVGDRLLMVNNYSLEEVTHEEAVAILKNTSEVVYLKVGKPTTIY

RADIL, Q96JH8 = target: T9, RADIL, Q96JH8
T9 sequence (Q96JH8 971-1071, limits assumed, looked up): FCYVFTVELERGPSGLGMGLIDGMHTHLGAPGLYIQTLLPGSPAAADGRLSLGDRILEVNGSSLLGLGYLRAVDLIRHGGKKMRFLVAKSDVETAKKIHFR

MPDZ_12, O75970 = target: T10, MPDZ_12, O75970
T10 sequence (O75970 1857-1958, limits assumed, looked up): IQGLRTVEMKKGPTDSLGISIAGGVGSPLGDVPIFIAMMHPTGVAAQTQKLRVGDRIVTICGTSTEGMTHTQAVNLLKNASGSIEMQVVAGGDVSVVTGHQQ

PARD3_3, Q8TEW0 = target: PARD3_3, Q8TEW0
Chain of PARD3_3, Q8TEW0 (Q8TEW0 582-685): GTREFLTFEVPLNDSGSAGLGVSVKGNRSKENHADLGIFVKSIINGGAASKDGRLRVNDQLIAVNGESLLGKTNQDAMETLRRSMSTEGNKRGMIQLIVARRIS

APBA1_2, Q02410 = target: T11, APBA1_2, Q02410
T11 sequence (Q02410 742-832, limits assumed, looked up): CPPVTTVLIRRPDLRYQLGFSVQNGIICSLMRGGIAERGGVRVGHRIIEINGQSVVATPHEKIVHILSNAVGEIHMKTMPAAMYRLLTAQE

GRIP1_2, Q9Y3R0 = target: T12, GRIP1_2, Q9Y3R0
T12 sequence (Q9Y3R0 145-248, limits assumed, looked up): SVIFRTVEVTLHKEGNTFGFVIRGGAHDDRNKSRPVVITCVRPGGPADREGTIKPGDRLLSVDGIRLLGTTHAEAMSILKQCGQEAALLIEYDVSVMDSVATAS

DLG1_1, Q12959 = target: DLG1_1, Q12959
Inadl_10, Q8NI35 = target: Inadl_10, Q8NI35
Chain of Inadl_10, Q8NI35 (Q8NI35 1673-1763): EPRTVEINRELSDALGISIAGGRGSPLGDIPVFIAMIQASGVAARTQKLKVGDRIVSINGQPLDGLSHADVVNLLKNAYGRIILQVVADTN

ARHGEF12, Q9NZN5-2 = target: ARHGEF12, Q9NZN5-2
Chain of ARHGEF12, Q9NZN5-2 (Q9NZN5 other isoform, or with tags, fused parts or gaps): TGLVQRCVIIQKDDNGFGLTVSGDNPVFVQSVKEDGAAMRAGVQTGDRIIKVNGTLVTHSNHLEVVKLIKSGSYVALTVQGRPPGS

Chain of DLG4_2, P78352 (P78352 155-259): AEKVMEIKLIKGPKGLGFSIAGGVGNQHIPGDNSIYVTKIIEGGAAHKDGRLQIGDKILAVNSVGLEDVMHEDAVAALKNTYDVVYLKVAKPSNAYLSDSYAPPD
Chain of MAGI2_3, Q86UL8 (Q86UL8 600-682): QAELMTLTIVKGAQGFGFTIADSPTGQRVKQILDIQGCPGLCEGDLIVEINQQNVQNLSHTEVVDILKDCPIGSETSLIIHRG

B1: PRKD2, Q9BZL6 (peptide)
chain: QGLAERISVL
pKd (MAGI2_3, Q86UL8): below the threshold | pKd (DLG4_2, P78352): 3.48 | pKd (LRRC7, Q96NW7): below the threshold | pKd (SNTG2, Q9NY99): 3.66 | pKd (MAGI2_5, Q86UL8): 4.13 | pKd (ARHGEF11, O15085): 4.77 | pKd (NHERF4_2, Q86UT5): below the threshold | pKd (RHPN1, Q8TCX5): 4.62 | pKd (GRIP1_3, Q9Y3R0): below the threshold | pKd (CASK, O14936): below the threshold | pKd (Inadl_4, Q8NI35): below the threshold | pKd (SCRIB_3, Q14160): 4.19 | pKd (DLG5_1, Q8TDM6): below the threshold | pKd (SCRIB_1, Q14160): 3.77 | pKd (PTPN13_1, Q12923): below the threshold | pKd (SNTB1, Q13884): 4.92 | pKd (PDZRN3_1, Q9UPQ7): 3.84 | pKd (DLG2_2, Q15700): below the threshold | pKd (RADIL, Q96JH8): 3.99 | pKd (MPDZ_12, O75970): below the threshold | pKd (PARD3_3, Q8TEW0): 3.68 | pKd (APBA1_2, Q02410): 4.05 | pKd (GRIP1_2, Q9Y3R0): below the threshold | pKd (DLG1_1, Q12959): below the threshold | pKd (Inadl_10, Q8NI35): below the threshold | pKd (ARHGEF12, Q9NZN5-2): 5.06

B2: NLGN2, Q8NFZ4 (peptide)
chain: LPHPHSTTRV
pKd (MAGI2_3, Q86UL8): 4.24 | pKd (DLG4_2, P78352): 3.86 | pKd (LRRC7, Q96NW7): below the threshold | pKd (SNTG2, Q9NY99): 4.16 | pKd (MAGI2_5, Q86UL8): below the threshold | pKd (ARHGEF11, O15085): 3.96 | pKd (NHERF4_2, Q86UT5): below the threshold | pKd (RHPN1, Q8TCX5): 3.83 | pKd (GRIP1_3, Q9Y3R0): below the threshold | pKd (CASK, O14936): below the threshold | pKd (Inadl_4, Q8NI35): below the threshold | pKd (SCRIB_3, Q14160): below the threshold | pKd (DLG5_1, Q8TDM6): below the threshold | pKd (SCRIB_1, Q14160): below the threshold | pKd (PTPN13_1, Q12923): below the threshold | pKd (SNTB1, Q13884): 4.22 | pKd (PDZRN3_1, Q9UPQ7): below the threshold | pKd (DLG2_2, Q15700): 3.59 | pKd (RADIL, Q96JH8): 3.87 | pKd (MPDZ_12, O75970): below the threshold | pKd (PARD3_3, Q8TEW0): below the threshold | pKd (APBA1_2, Q02410): below the threshold | pKd (GRIP1_2, Q9Y3R0): below the threshold | pKd (DLG1_1, Q12959): 3.78 | pKd (Inadl_10, Q8NI35): below the threshold | pKd (ARHGEF12, Q9NZN5-2): 3.84

B3: TRPV3, Q8NET8 (peptide)
chain: EVEEFPETSV
pKd (MAGI2_3, Q86UL8): 4.06 | pKd (DLG4_2, P78352): 4.4 | pKd (LRRC7, Q96NW7): 4.08 | pKd (SNTG2, Q9NY99): 5.05 | pKd (MAGI2_5, Q86UL8): 3.82 | pKd (ARHGEF11, O15085): 4.79 | pKd (NHERF4_2, Q86UT5): below the threshold | pKd (RHPN1, Q8TCX5): 4.68 | pKd (GRIP1_3, Q9Y3R0): 3.49 | pKd (CASK, O14936): below the threshold | pKd (Inadl_4, Q8NI35): 3.49 | pKd (SCRIB_3, Q14160): 5.02 | pKd (DLG5_1, Q8TDM6): 3.7 | pKd (SCRIB_1, Q14160): 4.54 | pKd (PTPN13_1, Q12923): 3.58 | pKd (SNTB1, Q13884): 5.23 | pKd (PDZRN3_1, Q9UPQ7): 4.91 | pKd (DLG2_2, Q15700): 4.2 | pKd (RADIL, Q96JH8): 3.81 | pKd (MPDZ_12, O75970): below the threshold | pKd (PARD3_3, Q8TEW0): 3.85 | pKd (APBA1_2, Q02410): 4.33 | pKd (GRIP1_2, Q9Y3R0): 3.59 | pKd (DLG1_1, Q12959): 4.25 | pKd (Inadl_10, Q8NI35): below the threshold | pKd (ARHGEF12, Q9NZN5-2): 3.94

The next lines start with the values.

pKd (MAGI2_3, Q86UL8): below the threshold | pKd (DLG4_2, P78352): below the threshold | pKd (LRRC7, Q96NW7): below the threshold | pKd (SNTG2, Q9NY99): below the threshold | pKd (MAGI2_5, Q86UL8): below the threshold | pKd (ARHGEF11, O15085): below the threshold | pKd (NHERF4_2, Q86UT5): below the threshold | pKd (RHPN1, Q8TCX5): below the threshold | pKd (GRIP1_3, Q9Y3R0): below the threshold | pKd (CASK, O14936): below the threshold | pKd (Inadl_4, Q8NI35): below the threshold | pKd (SCRIB_3, Q14160): below the threshold | pKd (DLG5_1, Q8TDM6): below the threshold | pKd (SCRIB_1, Q14160): below the threshold | pKd (PTPN13_1, Q12923): below the threshold | pKd (SNTB1, Q13884): below the threshold | pKd (PDZRN3_1, Q9UPQ7): below the threshold | pKd (DLG2_2, Q15700): below the threshold | pKd (RADIL, Q96JH8): below the threshold | pKd (MPDZ_12, O75970): below the threshold | pKd (PARD3_3, Q8TEW0): below the threshold | pKd (APBA1_2, Q02410): below the threshold | pKd (GRIP1_2, Q9Y3R0): below the threshold | pKd (DLG1_1, Q12959): below the threshold | pKd (Inadl_10, Q8NI35): below the threshold | pKd (ARHGEF12, Q9NZN5-2): below the threshold
B4: TRMT13, Q9NUP7 (peptide)
chain: NHSSSPETTA

pKd (MAGI2_3, Q86UL8): below the threshold | pKd (DLG4_2, P78352): below the threshold | pKd (LRRC7, Q96NW7): below the threshold | pKd (SNTG2, Q9NY99): below the threshold | pKd (MAGI2_5, Q86UL8): below the threshold | pKd (ARHGEF11, O15085): below the threshold | pKd (NHERF4_2, Q86UT5): below the threshold | pKd (RHPN1, Q8TCX5): below the threshold | pKd (GRIP1_3, Q9Y3R0): below the threshold | pKd (CASK, O14936): below the threshold | pKd (Inadl_4, Q8NI35): below the threshold | pKd (SCRIB_3, Q14160): below the threshold | pKd (DLG5_1, Q8TDM6): below the threshold | pKd (SCRIB_1, Q14160): below the threshold | pKd (PTPN13_1, Q12923): below the threshold | pKd (SNTB1, Q13884): below the threshold | pKd (PDZRN3_1, Q9UPQ7): below the threshold | pKd (DLG2_2, Q15700): below the threshold | pKd (RADIL, Q96JH8): 4 | pKd (MPDZ_12, O75970): below the threshold | pKd (PARD3_3, Q8TEW0): below the threshold | pKd (APBA1_2, Q02410): 4.09 | pKd (GRIP1_2, Q9Y3R0): below the threshold | pKd (DLG1_1, Q12959): below the threshold | pKd (Inadl_10, Q8NI35): below the threshold | pKd (ARHGEF12, Q9NZN5-2): below the threshold
B5: CLDN1, O95832 (peptide)
chain: PAPSSGKDYV
